Bridges are numbered along the chain shown (N, C = ends). Where no end group is shown, it is not given here. [ ]: non-standard residue; d: D form. hArg = N=C(N)NCCCC[C@H](N)C(=O)O; staple K20 = not defined here; staple K5 = not defined here; staple K6 = not defined here; staple K7 = not defined here; staple K8 = not defined here; staple K9 = not defined here; Nle = CCCC[C@H](N)C(=O)O; L12 = not defined here; L1 = not defined here; L3 = not defined here; L4 = not defined here; L5 = not defined here; L6 = not defined here; L7 = not defined here; L8 = not defined here; L9 = not defined here; Aib = CC(C)(N)C(=O)O

Assay in all cases: cell-based or functional assay
In one assay the target is T1, human GIPR (human, UniProt P48546 22-466).
T1 sequence (looked up): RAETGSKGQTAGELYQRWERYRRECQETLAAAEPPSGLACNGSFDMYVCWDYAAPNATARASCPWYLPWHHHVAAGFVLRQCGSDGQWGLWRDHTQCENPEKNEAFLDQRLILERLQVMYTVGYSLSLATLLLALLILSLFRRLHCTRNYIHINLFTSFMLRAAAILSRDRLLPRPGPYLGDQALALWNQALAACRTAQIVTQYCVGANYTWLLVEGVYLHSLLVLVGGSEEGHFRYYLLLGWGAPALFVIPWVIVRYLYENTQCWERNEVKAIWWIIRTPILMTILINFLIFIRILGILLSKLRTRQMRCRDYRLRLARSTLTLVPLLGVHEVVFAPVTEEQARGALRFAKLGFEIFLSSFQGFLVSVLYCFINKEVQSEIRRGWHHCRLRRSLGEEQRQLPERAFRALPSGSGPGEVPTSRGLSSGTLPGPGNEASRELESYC

The target in another assay is human GLP-1R (human, UniProt P43220 24-463).
The next assay deals with human NPFF2R (human, UniProt Q9Y5X5 1-522).
Assay [1] addresses T2, GPR10 (UniProt P49683 1-370, limits assumed).
T2 sequence (looked up): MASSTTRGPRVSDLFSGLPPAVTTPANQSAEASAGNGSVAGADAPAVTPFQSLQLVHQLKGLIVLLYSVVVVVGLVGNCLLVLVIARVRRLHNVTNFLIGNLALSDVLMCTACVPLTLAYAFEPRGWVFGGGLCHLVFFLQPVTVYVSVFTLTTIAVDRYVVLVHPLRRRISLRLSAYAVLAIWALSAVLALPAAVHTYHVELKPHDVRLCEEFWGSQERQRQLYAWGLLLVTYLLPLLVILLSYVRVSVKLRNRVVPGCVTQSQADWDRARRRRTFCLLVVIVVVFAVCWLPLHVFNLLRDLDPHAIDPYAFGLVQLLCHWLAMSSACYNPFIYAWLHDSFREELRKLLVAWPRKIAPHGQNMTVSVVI

For assay [2], the target named is T2, GPR10. This is another data set of the same source.

human NPFF2R, sequence (Q9Y5X5 whole entry): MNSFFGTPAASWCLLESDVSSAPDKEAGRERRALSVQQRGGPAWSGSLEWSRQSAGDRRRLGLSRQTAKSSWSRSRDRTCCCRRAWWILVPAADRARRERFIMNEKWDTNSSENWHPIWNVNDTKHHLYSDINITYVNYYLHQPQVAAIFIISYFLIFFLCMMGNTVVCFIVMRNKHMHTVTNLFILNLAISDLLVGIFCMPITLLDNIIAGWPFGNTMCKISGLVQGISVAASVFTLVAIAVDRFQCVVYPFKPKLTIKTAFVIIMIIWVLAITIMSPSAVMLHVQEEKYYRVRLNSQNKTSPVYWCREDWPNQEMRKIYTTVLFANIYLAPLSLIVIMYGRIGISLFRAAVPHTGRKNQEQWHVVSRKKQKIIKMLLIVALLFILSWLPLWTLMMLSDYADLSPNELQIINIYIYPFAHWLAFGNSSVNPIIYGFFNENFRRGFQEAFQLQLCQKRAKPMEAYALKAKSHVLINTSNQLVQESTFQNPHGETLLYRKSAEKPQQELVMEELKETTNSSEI

Consider Y[Aib]EGTFTSDYSIYLDKKAQ[Aib]AFVKWLIAQGPSSGAPPPS (linker 17-24 via staple K6; reading uncertain) [Conjugate 160], for which the “EC50 cAMP 0% FBS” value in the assay with human GIPR was determined as 7.3 nM; with human GLP-1R it was 0.03 nM.

Regarding Y[Aib]EGTFTSDYSIYLDKKAQ[Aib]AFVKWLIAQGPSSGAPPPS (linker 17-24 via staple K9; reading uncertain) [Conjugate 164], the “EC50 cAMP 0% FBS” value was found to be 68.3 nM in the assay with human GIPR and 0.14 nM in the assay with human GLP-1R.

Consider SRAHQCS[Nle]ETRTCDINPAWYTG[hArg]GIRPVGRF-NH2 (linker 6-13 via L9; reading uncertain) [Conjugate 268], for which, in the assay with human NPFF2R, the “NPFF2R EC50 0% FBS” value was 9000 nM and the “NPFF2R EC50 10% FBS” value is above 10000 nM. Further, in the assay with GPR10 [1], the “GPR10 EC50 0% FBS” value stood at 8.2 nM and the “GPR10 EC50 10% FBS” value was 120 nM.

SRAHQCS[Nle]ETRTCDINPAWYTG[hArg]GIRPVGRF-NH2 (linker 6-13 via L4; reading uncertain) [Conjugate 259]: in the assay with human NPFF2R, the “NPFF2R EC50 0% FBS” value worked out at 470 nM and the “NPFF2R EC50 10% FBS” value was above 10000 nM. For the same molecule, in the assay with GPR10 [1], the “GPR10 EC50 0% FBS” value came out at 12 nM and the “GPR10 EC50 10% FBS” value was found to be 26 nM. In addition, the “GPR10 EC50” value with GPR10 [2] was 26 nM.

In the case of Y[Aib]EGTFTSDYSIYKDKQAA[Aib]KFKNWLKAGGPSSGAPPPS (linker 23-27 via staple K9; reading uncertain) [Conjugate 159], the “EC50 cAMP 0% FBS” value in the assay with human GIPR was 0.0312 nM; with human GLP-1R, 1180 nM.

Regarding SRAHQCS[Nle]ETRTCDINPAWYTG[hArg]GIRPVGRF-NH2 (linker 6-13 via L7; reading uncertain) [Conjugate 271], in the assay with human NPFF2R, the “NPFF2R EC50 0% FBS” value came to 130 nM and the “NPFF2R EC50 10% FBS” value was determined as 140 nM. For the same molecule, in the assay with GPR10 [1], the “GPR10 EC50 0% FBS” value stood at 9 nM and the “GPR10 EC50 10% FBS” value was determined as 39 nM.

With Y[Aib]EGTFTSDYSIYKDKQAA[Aib]KFKNWLKAGGPSSGAPPPS (linker 23-27 via staple K5; reading uncertain) [Conjugate 158], the results for the “EC50 cAMP 0% FBS” value with human GIPR and with human GLP-1R were 30.5 nM and 98.3 nM, respectively.

With SRAHQCS[Nle]ETRTCDINPAWYTG[hArg]GIRPVGRF-NH2 (linker 6-13 via L6; reading uncertain) [Conjugate 270], in the assay with human NPFF2R, the “NPFF2R EC50 0% FBS” value worked out at 270 nM and the “NPFF2R EC50 10% FBS” value worked out at 310 nM. Also, in the assay with GPR10 [1], the “GPR10 EC50 0% FBS” value was found to be 12 nM and the “GPR10 EC50 10% FBS” value worked out at 42 nM.

Consider Y[Aib]EGTFTSDYSIYLDKKAQ[Aib]AFVKWLIAQGPSSGAPPPS (linker 17-24 via staple K5; reading uncertain) [Conjugate 163], for which the “EC50 cAMP 0% FBS” value with human GIPR was 0.05 nM; with human GLP-1R, 0.24 nM.

Y[Aib]EGTFTSDYSIYLDKKAQ[Aib]AFVKWLIAQGPSSGAPPPS (linker 17-24 via staple K8; reading uncertain) [Conjugate 161]: the “EC50 cAMP 0% FBS” value with human GIPR came out at 0.01 nM; with human GLP-1R, 0.4 nM.

For Y[Aib]EGTFTSDYSIYKDKQAA[Aib]KFKNWLKAGGPSSGAPPPS (linker 23-27 via staple K8; reading uncertain) [Conjugate 156], the entries for the “EC50 cAMP 0% FBS” value with human GIPR and with human GLP-1R were 2.82 nM and 14.6 nM, respectively.

On to Y[Aib]EGTFTSDYSIYKDKQAA[Aib]KFVNWLLAGGPSSGAPPPS (linker 14-21 via staple K6; reading uncertain) [Conjugate 151], for which the figures for the “EC50 cAMP 0% FBS” value with human GIPR and in the assay with human GLP-1R were 0.02 nM and 0.03 nM, respectively.

Turning to SRAHQCS[Nle]ETRTCDINPAWYTG[hArg]GIRPVGRF-NH2 (linker 6-13 via L1; reading uncertain) [Conjugate 251], in the assay with human NPFF2R, the “NPFF2R EC50 0% FBS” value is 920 nM and the “NPFF2R EC50 10% FBS” value was 1200 nM. For the same molecule, in the assay with GPR10 [1], the “GPR10 EC50 0% FBS” value came out at 5.9 nM and the “GPR10 EC50 10% FBS” value worked out at 10 nM. In the assay with GPR10 [2], the “GPR10 EC50” value turned out to be 10 nM.

For SRAHQCS[Nle]ETRTCDINPAWYTG[hArg]GIRPVGRF-NH2 (linker 6-13 via L8; reading uncertain) [Conjugate 267], in the assay with human NPFF2R, the “NPFF2R EC50 0% FBS” value turned out to be 560 nM and the “NPFF2R EC50 10% FBS” value was around 10000 nM. In the assay with GPR10 [1], the “GPR10 EC50 0% FBS” value was determined as 24 nM and the “GPR10 EC50 10% FBS” value is 830 nM.

Regarding Y[Aib]EGTFTSDYSIYKDKQAA[Aib]KFVNWLLAGGPSSGAPPPS (linker 14-21 via staple K7; reading uncertain) [Conjugate 154], the “EC50 cAMP 0% FBS” value with human GIPR came out at 0.02 nM; in the assay with human GLP-1R it was 0.03 nM.

For the molecule Y[Aib]EGTFTSDYSIYKDKQAA[Aib]KFVNWLLAGGPSSGAPPPS (linker 14-21 via staple K20; reading uncertain) [Conjugate 153], the “EC50 cAMP 0% FBS” value with human GIPR is 0.01 nM; in the assay with human GLP-1R, 0.05 nM.

As for Y[Aib]EGTFTSDYSIYKDKQAA[Aib]KFKNWLKAGGPSSGAPPPS (linker 23-27 via staple K6; reading uncertain) [Conjugate 155], the “EC50 cAMP 0% FBS” value in the assay with human GIPR was 1.66 nM; with human GLP-1R it was 4.08 nM.

In the case of SRAHQCS[Nle]ETRTCDINPAWYTG[hArg]GIRPVGRF-NH2 (linker 6-13 via L5; reading uncertain) [Conjugate 263], in the assay with human NPFF2R, the “NPFF2R EC50 0% FBS” value was found to be 520 nM and the “NPFF2R EC50 10% FBS” value is above 10000 nM. In the assay with GPR10 [1], the “GPR10 EC50 0% FBS” value is 7.8 nM and the “GPR10 EC50 10% FBS” value came out at 80 nM. Further, in the assay with GPR10 [2], the “GPR10 EC50” value stood at 80 nM.

For the molecule SRAHQCS[Nle]ETRTCDINPAWYTG[hArg]GIRPVGRF-NH2 (linker 6-13 via L12; reading uncertain) [Conjugate 269], in the assay with human NPFF2R, the “NPFF2R EC50 0% FBS” value turned out to be 1600 nM and the “NPFF2R EC50 10% FBS” value is around 8000 nM. Moreover, in the assay with GPR10 [1], the “GPR10 EC50 0% FBS” value is 10 nM and the “GPR10 EC50 10% FBS” value was 120 nM.

Y[Aib]EGTFTSDYSIYLDKKAQ[Aib]AFVKWLIAQGPSSGAPPPS (linker 17-24 via staple K20; reading uncertain) [Conjugate 162]: the “EC50 cAMP 0% FBS” value was determined as 0.02 nM in the assay with human GIPR and 0.05 nM in the assay with human GLP-1R.

On to SRAHQCS[Nle]ETRTCDINPAWYTG[hArg]GIRPVGRF-NH2 (linker 6-13 via L3; reading uncertain) [Conjugate 255], for which, in the assay with human NPFF2R, the “NPFF2R EC50 0% FBS” value was found to be 150 nM and the “NPFF2R EC50 10% FBS” value was 220 nM. In addition, in the assay with GPR10 [1], the “GPR10 EC50 0% FBS” value came out at 8 nM and the “GPR10 EC50 10% FBS” value worked out at 9.1 nM. In addition, the “GPR10 EC50” value with GPR10 [2] came to 9.1 nM.
